For the test, the target named is ASC^(H118A,F136A,W169A,K174A, L177A-L178A,L192A) (ASC-YFP binding site mutant) (UniProt Q9ULZ3). The test is described as follows: flow cytometry of ASC-YFP speck formation in transfected HEK293 cells. As to conditions: parent: est. 37, read off a plot.

ASC-YFP, sequence (Q9ULZ3 whole entry H118A/F163A/W169A/K174A/L177A/L178A/L192A, change not shown): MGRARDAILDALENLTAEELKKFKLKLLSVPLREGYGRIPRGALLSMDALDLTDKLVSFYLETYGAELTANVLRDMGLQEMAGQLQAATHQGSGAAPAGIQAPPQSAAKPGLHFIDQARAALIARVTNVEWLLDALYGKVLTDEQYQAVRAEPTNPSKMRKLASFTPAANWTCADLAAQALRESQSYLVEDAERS

Take “ASC-YFP (from UniProt Q9ULZ3) H118A; F136A; W169A; K174A; L177A; L178A; L192A”: the other: ASC specks (%) is 13%.

For the origin of these results see article PMC8667020.
